Laboratory results reported in PMC7990167, “An antibody targeting type III secretion system induces broad protection against Salmonella and Shigella infections” (PLoS Neglected Tropical Diseases, 2021).
Values joined by “and” are separate entries in the source; they are usually repeats but may differ in a detail not shown here. Identical values can stand only once.

Molecular target: T1, IpaD (wild type, Shigella flexneri) expressed on the surface of yeast cells (Shigella flexneri, gene synthesized …, UniProt P18013)
T1 construct: IpaD of Shigella flexneri; also called wild-type IpaD; needle tip protein of the Shigella type III secretion system
T1 sequence (P18013 whole entry): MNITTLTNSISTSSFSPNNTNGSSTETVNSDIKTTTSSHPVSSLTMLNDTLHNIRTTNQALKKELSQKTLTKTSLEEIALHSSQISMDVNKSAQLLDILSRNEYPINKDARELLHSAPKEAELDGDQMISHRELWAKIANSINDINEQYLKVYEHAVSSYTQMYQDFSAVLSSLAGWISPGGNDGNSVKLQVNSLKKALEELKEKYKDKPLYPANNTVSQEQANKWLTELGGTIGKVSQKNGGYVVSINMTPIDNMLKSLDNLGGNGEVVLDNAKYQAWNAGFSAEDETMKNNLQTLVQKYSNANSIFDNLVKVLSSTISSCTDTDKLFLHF
Test: flow cytometry on cells; wild-type IpaD on the surface of yeast cells, increasing concentrations of the VHH, fluorescence by FACS; apparent KD, one site-specific binding model (PRISM)
Conditions: one partner purified

B1: VHH-20ipaD (VHH)
VHH: QVQLVESGGGLVQAGGSLRLSCAVSGLEMQSHAIGWFRQAPGKEREGVSCINDDGSTTRYADSVKGRFTISRDNAKNTVYLQMNSLKPEDTAVYFCAAKSVWFCSVIRSHEFNSWGQGTQVTVSS
notes: the VHH chain is in the complex IpaD/VHH-20ipaD, PDB 5VXM; Monomeric fractions of the gel filtration were pooled; source: E. coli BL21, purified (TEV cleavage, HisTrap flow-through, gel filtration)
For B1, the Kd was 1.16 nM and 1.15 nM.
